2 molecules from PMC6328864, “Regulation of Myosin-5b by Rab11a and the Rab11 family interacting protein 2” (Bioscience Reports, 2018) can be followed below.

Sequences and labels used below:
B2: GST–Rab11a (natural protein, human, UniProt P62491 1-216, looked up)
chain: MGTRDDEYDYLFKVVLIGDSGVGKSNLLSRFTRNEFNLESKSTIGVEFATRSIQVDGKTIKAQIWDTAGQERYRAITSAYYRGAVGALLVYDIAKHLTYENVERWLKELRDHADSNIVIMLVGNKSDLRHLRAVPTDEARAFAEKNGLSFIETSALDSTNVEAAFQTILTEIYRIVSQKQMSDRRENDMSPSNNVVPIHVPPTTENKPKVQCCQNI
notes: Rab11a, human (cDNA by RT-PCR from human brain cDNA); GTPγS also in the pull-down buffers; source: E. coli, purified (GSH-Sepharose); not shown: GST, N-terminal, kept

The experiment “GST–Rab11a” addresses B2. The experiment in a line: pull-down; GSH-Sepharose; 0.5 μM GST–Rab11a (bait), 0–1.0 μM Flag-Myo5b-GTD, 0–1.0 μM Flag-FIP2-RBD; Buffer-B with 100 mM NaCl and 3 μM GTPγS; 4°C, 1 h; eluted with 20 mM GSH; Western blot (anti-Flag, anti-GST). The conditions noted are these: both partners purified. (In general: In western blotting, separated proteins are transferred to a membrane and probed.)

In another experiment the target is T1, Flag-Myo5b-GTD (Rattus norvegicus (Rat), UniProt P70569).
T1 chain: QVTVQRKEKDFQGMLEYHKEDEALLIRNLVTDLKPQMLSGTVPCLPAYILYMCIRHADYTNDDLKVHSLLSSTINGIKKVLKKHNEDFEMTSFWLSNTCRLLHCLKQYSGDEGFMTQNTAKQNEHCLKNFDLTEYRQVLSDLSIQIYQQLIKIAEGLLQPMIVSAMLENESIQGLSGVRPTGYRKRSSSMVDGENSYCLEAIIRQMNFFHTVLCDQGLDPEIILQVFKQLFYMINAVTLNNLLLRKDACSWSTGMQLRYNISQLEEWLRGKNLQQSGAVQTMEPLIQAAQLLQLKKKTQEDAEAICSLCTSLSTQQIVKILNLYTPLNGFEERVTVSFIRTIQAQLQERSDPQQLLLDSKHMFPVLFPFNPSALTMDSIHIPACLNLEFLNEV
The experiment in a line: GST pull-down / anti-Flag pull-down; Rab11a loaded with GTPγS/Mg2+; binding competed away by FIP2-RBD.

The target of experiment [1] is T2, Flag-FIP2 (full-length Rab11 family interacting protein 2) (human, UniProt Q7L804 1-512).
T2 construct: not shown: Flag, N-terminal, kept
The experiment in a line: pull-down; GSH-Sepharose; 0.5 μM GST–Rab11a (bait), 0–0.5 μM Flag-Myo5b-Tail, 0–1.0 μM Flag-FIP2 or Flag-FIP2-RBD; Buffer-B with 100 mM NaCl and 3 μM GTPγS; 4°C, 1 h; eluted with 20 mM GSH; Coomassie staining. To be noted: both partners purified.

B1: Flag-FIP2-RBD (domain or fragment, human, UniProt Q7L804 452-512, looked up)
chain: TYEEVLQELVKHKELLRRKDTHIRELEDYIDNLLVRVMEETPSILRVPYEPSRKAGKFSNS
notes: not shown: Flag, N-terminal, kept
As for B1, the binding result with GST–Rab11a is “binds”.
Regarding B2, the binding result (with Flag-Myo5b-GTD; in experiment [1]) was “binds” in each case.
